Measured values: publication PMC12187939

How the values were obtained:
[1] = molecular target: CBP, A549 nuclear extract (UniProt Q92793); assay: FLAG IP/MS; conditions: nuclear fractions from A549 cells; four individual replicates; read off a plot
[2] = molecular target: p300, A549 nuclear extract (UniProt Q09472); assay: FLAG IP/MS; conditions: nuclear fractions from A549 cells; four individual replicates; read off a plot
UniProt Q09472, sequence (Q09472 whole entry): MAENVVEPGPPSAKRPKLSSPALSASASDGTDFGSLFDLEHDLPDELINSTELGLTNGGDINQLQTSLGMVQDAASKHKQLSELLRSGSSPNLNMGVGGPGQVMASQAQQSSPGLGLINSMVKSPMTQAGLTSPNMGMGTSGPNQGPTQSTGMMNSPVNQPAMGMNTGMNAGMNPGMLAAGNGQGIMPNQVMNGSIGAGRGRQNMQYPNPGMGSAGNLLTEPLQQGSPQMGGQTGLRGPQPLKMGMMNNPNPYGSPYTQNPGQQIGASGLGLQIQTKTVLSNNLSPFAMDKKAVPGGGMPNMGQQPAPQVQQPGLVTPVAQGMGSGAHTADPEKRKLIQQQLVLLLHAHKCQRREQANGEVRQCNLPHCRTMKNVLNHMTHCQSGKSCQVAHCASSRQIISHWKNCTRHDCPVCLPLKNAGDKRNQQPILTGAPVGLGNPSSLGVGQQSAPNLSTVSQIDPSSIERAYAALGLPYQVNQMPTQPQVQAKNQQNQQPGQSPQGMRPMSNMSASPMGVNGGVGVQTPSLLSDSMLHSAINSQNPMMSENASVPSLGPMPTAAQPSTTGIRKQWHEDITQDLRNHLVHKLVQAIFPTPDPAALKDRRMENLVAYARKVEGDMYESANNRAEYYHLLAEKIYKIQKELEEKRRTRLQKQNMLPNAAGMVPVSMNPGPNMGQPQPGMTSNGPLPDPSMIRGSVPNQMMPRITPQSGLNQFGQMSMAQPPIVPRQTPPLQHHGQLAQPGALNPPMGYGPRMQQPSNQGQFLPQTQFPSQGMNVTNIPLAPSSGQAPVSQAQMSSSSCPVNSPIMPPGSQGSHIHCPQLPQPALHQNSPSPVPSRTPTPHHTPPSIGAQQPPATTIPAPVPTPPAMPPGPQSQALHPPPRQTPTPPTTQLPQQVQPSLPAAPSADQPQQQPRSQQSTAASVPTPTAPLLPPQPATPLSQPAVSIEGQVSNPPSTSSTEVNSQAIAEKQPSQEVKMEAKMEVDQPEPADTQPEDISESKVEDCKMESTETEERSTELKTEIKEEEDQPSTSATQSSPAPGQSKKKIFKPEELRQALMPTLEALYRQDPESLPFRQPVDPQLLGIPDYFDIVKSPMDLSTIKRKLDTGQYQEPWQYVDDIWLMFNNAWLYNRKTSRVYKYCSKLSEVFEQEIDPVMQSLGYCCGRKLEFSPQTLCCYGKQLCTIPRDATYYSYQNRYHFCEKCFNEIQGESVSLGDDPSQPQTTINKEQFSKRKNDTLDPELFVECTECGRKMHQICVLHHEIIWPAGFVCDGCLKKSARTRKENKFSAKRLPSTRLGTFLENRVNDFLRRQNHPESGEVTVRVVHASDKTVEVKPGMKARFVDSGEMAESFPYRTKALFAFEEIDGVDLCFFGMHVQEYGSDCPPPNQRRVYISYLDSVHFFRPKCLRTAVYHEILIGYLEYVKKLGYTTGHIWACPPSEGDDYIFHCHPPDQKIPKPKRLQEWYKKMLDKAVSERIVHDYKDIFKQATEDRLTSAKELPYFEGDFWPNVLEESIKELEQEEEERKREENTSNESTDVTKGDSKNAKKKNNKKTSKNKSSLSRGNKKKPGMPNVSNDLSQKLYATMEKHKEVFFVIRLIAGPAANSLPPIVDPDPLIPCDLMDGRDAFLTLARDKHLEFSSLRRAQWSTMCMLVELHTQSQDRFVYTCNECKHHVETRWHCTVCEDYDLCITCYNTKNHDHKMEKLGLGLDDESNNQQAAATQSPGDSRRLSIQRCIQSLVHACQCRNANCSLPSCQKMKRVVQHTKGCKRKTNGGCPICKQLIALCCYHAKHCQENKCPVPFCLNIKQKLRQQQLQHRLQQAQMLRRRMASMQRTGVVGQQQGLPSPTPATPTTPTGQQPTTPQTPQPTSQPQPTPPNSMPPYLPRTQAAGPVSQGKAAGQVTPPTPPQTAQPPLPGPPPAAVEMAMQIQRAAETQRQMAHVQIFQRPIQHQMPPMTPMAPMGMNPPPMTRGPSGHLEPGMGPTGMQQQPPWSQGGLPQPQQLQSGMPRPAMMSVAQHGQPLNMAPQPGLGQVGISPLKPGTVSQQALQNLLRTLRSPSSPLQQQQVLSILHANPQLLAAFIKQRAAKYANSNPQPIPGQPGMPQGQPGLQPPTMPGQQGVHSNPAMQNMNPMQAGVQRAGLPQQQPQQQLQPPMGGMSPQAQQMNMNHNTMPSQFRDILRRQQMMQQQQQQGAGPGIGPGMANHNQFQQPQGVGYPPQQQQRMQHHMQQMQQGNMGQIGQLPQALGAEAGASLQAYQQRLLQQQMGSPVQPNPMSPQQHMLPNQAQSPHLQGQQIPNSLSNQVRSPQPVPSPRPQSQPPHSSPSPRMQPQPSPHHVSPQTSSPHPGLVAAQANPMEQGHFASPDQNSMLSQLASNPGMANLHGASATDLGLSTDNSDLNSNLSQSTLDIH

UniProt Q92793, sequence (Q92793 whole entry): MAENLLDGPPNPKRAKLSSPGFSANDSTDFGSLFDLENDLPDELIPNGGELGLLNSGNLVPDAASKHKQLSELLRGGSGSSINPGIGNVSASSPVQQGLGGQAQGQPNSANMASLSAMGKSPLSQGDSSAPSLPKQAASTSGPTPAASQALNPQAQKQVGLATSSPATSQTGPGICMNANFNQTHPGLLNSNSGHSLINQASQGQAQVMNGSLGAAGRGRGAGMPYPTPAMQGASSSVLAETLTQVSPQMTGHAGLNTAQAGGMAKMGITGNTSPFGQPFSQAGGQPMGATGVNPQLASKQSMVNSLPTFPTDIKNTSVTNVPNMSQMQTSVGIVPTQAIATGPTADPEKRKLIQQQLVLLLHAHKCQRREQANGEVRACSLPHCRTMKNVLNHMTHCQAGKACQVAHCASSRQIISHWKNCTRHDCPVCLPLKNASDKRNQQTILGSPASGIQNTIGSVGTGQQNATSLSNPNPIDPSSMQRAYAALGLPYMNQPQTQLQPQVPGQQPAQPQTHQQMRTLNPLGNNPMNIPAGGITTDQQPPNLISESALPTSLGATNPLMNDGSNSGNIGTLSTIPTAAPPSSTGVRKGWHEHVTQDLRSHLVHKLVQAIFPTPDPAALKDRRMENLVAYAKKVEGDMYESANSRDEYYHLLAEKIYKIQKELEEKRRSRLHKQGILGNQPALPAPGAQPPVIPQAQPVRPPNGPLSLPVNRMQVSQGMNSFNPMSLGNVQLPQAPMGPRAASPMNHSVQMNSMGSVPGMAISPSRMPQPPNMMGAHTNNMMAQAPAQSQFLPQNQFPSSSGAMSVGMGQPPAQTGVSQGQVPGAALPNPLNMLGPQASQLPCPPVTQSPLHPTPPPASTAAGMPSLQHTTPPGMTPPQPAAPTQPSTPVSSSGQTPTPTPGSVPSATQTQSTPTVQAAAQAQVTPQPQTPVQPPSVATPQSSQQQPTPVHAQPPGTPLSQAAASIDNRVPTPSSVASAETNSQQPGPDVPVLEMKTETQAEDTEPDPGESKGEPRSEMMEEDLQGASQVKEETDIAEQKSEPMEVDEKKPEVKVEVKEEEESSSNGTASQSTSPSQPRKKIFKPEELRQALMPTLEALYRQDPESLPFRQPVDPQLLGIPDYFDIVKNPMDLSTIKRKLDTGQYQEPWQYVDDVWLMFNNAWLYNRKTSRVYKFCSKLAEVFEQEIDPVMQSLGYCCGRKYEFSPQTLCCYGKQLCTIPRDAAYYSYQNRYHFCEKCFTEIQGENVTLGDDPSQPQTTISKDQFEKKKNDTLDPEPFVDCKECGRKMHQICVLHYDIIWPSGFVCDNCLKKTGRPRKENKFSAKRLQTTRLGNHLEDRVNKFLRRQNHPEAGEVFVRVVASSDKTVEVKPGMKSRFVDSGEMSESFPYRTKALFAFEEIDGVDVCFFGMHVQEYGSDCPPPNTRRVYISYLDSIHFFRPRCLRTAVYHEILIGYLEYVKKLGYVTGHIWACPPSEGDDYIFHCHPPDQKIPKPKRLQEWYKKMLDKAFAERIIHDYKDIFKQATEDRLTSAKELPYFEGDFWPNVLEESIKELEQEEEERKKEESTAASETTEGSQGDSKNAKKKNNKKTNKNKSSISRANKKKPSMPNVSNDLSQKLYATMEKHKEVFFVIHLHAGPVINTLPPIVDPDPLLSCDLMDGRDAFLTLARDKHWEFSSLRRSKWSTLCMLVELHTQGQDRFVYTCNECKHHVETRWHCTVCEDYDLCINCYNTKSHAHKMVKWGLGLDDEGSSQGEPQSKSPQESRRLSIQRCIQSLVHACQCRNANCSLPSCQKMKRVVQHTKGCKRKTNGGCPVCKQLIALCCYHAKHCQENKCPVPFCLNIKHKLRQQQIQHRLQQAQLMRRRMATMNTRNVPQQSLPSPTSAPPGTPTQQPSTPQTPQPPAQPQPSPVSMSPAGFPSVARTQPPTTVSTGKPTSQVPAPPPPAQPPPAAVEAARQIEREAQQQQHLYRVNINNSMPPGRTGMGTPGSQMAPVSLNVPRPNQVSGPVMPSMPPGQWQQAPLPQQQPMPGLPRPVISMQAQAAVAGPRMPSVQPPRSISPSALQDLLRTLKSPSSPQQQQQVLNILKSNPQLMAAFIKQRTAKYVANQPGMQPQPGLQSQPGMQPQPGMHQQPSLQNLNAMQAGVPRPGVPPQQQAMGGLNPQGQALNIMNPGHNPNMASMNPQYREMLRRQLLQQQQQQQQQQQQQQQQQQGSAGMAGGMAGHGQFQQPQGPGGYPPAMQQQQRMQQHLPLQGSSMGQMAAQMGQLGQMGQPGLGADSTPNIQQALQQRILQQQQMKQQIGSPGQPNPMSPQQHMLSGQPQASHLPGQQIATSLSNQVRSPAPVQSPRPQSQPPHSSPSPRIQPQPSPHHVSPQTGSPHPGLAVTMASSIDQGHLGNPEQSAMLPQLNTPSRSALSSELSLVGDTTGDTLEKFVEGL

other: log2(fold change) [1]: -3.8 | other: log2(fold change) [2]: -3.2
Substance: FLAG-tagged WT NRF2, stably expressed in A549 (TRE3G-driven, dox-induced) (from UniProt Q16236) Neh4: …>… (F>A; D>A; C>A; L>A); Neh5: …>… (Q>A; D>A; E>A; L>A)
